Laboratory results from patent publication US11866731.
Several values for one entry are separate records, joined by “and”; a condition that tells them apart may be missing. Equal values may be shown once. Read-outs that look alike come from different tables or passages of the source.

Columns and labels:
[1] = target: CD19 (B cell surface protein) on B cells (UniProt P15391); assay: cell-based or functional assay
[2] = target: CD19 (B cell surface protein) on B cells (UniProt P15391); assay: cell-based or functional assay; remark: listed apart in the source

Chain of UniProt P15391 (P15391 20-556 limits assumed): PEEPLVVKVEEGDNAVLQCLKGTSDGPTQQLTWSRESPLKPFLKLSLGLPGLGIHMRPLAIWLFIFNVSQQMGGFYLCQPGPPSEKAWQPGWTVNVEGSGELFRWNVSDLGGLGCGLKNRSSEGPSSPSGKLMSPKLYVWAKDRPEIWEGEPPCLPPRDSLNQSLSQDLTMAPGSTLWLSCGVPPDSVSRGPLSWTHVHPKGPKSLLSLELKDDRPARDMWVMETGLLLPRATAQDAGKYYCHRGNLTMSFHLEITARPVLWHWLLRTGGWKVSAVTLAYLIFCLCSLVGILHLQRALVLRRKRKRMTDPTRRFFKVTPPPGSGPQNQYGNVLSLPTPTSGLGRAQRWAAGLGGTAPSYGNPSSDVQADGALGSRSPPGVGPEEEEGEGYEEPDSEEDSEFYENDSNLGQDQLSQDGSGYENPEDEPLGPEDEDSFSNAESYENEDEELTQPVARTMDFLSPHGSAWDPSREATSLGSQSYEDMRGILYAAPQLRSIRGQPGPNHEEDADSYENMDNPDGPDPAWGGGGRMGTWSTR

Expansion of T cells (fold, after 4 days of co-culture with B cells and J82-NY-ESO-1-Luc cells) [1]: 12 fold and 27 fold | Expansion of T cells (fold, after 96 hours of co-culture with tumor cells and B cells) [1]: 25 fold | Expansion of T cells (fold, after 96 hours of co-culture with tumor cells and B cells) [2]: 23 fold
B1: chimeric antigen receptor targeting B cell surface protein (BCAR), CD19 CAR (protein, part only; not given: transmembrane and signaling domains, part only)
chain, part: DIVLTQSPASLAMSLQLGWRPGWFLDSPDRVIGAHLIHWYQQKPGQPPKLLIYLASNLETGVPARFSGSGSGTDFTLTIDPVEEDDVAIYSCLQSRIFPRTFGGGTKLEIKGGGGSGGGGSGGGGSQIQLVQSGPELKKPGETVKISCKASGYTFTDYSINWVKRAPGKGLKWMGWINTETREPAYAYDFRGRFAFSLETSASTAYLQINNLKYEDTATYFCALDYSYAMDYWGQGTSVTVSS
Killing of J82-NY ESO1 tumor cells by BCAR-TCR T (RTCA Cell Index), with against without B cells [1]: 1000 times
